Read-outs that look alike come from different tables or passages of the source.
How the values were obtained:
[1] = biological target: TNF-alpha (U937 cytotoxicity assay of Example 16) (UniProt P01375 77-233, limits assumed); assay: cell-based or functional assay
[2] = biological target: T1, active human TNF-α full length protein (human, UniProt P01375 77-233); assay: ELISA, wells coated with 0.5 µg/mL TNF-α, sdAb at 1 µg/mL
[3] = biological target: T1, active human TNF-α full length protein
[4] = biological target: T1, active human TNF-α full length protein; remark: listed apart in the source
[5] = biological target: T1, active human TNF-α full length protein; remark: listed apart in the source
[6] = biological target: T1, active human TNF-α full length protein; remark: listed apart in the source
[7] = biological target: T1, active human TNF-α full length protein; remark: listed apart in the source
[8] = biological target: T1, active human TNF-α full length protein; remark: listed apart in the source
[9] = biological target: T1, active human TNF-α full length protein; remark: listed apart in the source
[10] = biological target: T1, active human TNF-α full length protein; remark: listed apart in the source
[11] = biological target: T1, active human TNF-α full length protein; remark: listed apart in the source
[12] = biological target: T1, active human TNF-α full length protein; remark: listed apart in the source
[13] = biological target: T1, active human TNF-α full length protein; remark: listed apart in the source
[14] = biological target: T1, active human TNF-α full length protein; remark: listed apart in the source
[15] = biological target: Human recombinant TNF-α (Sigma-Aldrich) (human, UniProt P01375 77-233); assay: cell-based or functional assay
Human recombinant TNF-α (Sigma-Aldrich), sequence (P01375 77-233 limits assumed): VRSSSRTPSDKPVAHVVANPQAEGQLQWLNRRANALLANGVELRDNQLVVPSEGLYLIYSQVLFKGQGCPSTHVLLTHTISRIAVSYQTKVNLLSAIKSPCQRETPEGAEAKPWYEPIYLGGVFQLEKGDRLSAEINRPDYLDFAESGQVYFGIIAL

STAT 1 protein [16] = biological target: T2, STAT 1 protein (UniProt P42224 1-750, limits assumed); assay: sandwich ELISA, STAT protein coated at 0.5 µg/mL
T2 sequence (looked up): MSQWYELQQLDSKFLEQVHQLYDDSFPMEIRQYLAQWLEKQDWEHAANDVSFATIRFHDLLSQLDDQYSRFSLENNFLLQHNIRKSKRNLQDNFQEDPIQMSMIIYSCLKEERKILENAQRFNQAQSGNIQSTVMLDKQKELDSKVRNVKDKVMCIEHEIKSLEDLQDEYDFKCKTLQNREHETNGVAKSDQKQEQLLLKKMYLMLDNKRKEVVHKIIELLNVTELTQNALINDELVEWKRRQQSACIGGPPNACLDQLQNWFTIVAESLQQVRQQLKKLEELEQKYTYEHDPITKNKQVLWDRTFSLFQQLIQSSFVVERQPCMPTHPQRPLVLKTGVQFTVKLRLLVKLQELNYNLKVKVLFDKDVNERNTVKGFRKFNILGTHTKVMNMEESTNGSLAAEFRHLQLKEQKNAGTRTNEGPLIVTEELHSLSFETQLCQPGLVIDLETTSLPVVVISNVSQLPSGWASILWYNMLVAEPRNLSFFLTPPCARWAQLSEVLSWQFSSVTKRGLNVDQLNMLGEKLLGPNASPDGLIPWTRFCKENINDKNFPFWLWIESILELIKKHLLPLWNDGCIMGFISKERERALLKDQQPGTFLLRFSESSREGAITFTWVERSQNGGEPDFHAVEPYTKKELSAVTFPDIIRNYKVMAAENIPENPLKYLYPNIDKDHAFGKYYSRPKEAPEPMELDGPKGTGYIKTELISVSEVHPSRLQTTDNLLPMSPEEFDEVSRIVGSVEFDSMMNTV

STAT 2 protein [17] = biological target: T3, STAT 2 protein (UniProt P52630 1-851, limits assumed); assay: sandwich ELISA, STAT protein coated at 0.5 µg/mL
T3 sequence (P52630 whole entry): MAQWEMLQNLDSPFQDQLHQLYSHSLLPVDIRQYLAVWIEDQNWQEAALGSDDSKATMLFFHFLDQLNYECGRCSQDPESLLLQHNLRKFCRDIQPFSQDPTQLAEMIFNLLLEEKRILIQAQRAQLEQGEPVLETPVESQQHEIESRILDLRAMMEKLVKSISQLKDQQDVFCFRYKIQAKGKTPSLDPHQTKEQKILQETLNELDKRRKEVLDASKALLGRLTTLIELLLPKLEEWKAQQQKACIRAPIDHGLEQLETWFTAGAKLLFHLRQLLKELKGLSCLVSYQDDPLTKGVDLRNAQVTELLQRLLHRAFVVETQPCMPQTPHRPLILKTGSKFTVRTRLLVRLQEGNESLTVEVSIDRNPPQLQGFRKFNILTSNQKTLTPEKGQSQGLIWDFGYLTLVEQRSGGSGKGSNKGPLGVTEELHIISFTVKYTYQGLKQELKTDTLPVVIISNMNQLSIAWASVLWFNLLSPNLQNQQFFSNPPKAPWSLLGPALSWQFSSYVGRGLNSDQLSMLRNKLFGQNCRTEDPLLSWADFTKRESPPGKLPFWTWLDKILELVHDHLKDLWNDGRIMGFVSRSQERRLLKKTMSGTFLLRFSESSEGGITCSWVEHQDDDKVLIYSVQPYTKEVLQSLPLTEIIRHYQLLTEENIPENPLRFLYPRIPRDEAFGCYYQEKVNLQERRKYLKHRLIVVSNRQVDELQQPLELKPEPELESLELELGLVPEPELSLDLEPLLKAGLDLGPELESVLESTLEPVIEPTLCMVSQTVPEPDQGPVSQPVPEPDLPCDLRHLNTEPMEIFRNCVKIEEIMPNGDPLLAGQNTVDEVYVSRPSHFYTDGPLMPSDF

STAT 5a protein [18] = biological target: T4, STAT 5a protein (UniProt P42229 1-794, limits assumed); assay: sandwich ELISA, STAT protein coated at 0.5 µg/mL
T4 sequence (looked up): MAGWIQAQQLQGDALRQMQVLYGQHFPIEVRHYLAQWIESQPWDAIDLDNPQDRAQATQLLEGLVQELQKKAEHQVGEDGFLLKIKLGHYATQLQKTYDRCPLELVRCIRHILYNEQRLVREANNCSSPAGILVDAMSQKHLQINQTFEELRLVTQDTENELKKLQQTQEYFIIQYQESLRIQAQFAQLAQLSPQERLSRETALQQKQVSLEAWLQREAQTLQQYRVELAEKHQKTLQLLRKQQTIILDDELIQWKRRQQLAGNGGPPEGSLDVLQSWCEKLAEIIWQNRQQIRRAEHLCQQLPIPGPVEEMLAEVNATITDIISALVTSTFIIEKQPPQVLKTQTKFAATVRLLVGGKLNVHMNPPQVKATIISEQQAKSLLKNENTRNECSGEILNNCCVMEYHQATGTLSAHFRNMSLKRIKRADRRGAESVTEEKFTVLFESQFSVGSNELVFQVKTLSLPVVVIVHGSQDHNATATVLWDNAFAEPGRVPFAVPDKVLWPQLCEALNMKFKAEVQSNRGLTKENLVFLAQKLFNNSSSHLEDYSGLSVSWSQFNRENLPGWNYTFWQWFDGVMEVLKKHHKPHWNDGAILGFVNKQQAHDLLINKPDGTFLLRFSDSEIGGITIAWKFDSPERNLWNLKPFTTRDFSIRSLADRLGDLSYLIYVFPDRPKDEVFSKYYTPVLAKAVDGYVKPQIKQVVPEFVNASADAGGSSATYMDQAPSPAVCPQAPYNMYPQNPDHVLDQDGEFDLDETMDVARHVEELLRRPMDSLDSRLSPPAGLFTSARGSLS

STAT 1 protein [19] = biological target: T2, STAT 1 protein; assay: sandwich ELISA, STAT protein coated at 0.5 µg/mL; remark: listed apart in the source
STAT 2 protein [20] = biological target: T3, STAT 2 protein; assay: sandwich ELISA, STAT protein coated at 0.5 µg/mL; remark: listed apart in the source
STAT 5a protein [21] = biological target: T4, STAT 5a protein; assay: sandwich ELISA, STAT protein coated at 0.5 µg/mL; remark: listed apart in the source
STAT 1 protein [22] = biological target: T2, STAT 1 protein; assay: sandwich ELISA, STAT protein coated at 0.5 µg/mL; remark: listed apart in the source
STAT 2 protein [23] = biological target: T3, STAT 2 protein; assay: sandwich ELISA, STAT protein coated at 0.5 µg/mL; remark: listed apart in the source
STAT 5a protein [24] = biological target: T4, STAT 5a protein; assay: sandwich ELISA, STAT protein coated at 0.5 µg/mL; remark: listed apart in the source
STAT 1 protein [25] = biological target: T2, STAT 1 protein; assay: sandwich ELISA, STAT protein coated at 0.5 µg/mL; remark: listed apart in the source
STAT 2 protein [26] = biological target: T3, STAT 2 protein; assay: sandwich ELISA, STAT protein coated at 0.5 µg/mL; remark: listed apart in the source
STAT 5a protein [27] = biological target: T4, STAT 5a protein; assay: sandwich ELISA, STAT protein coated at 0.5 µg/mL; remark: listed apart in the source

T1 sequence (P01375 77-233 limits assumed): as the sequence (P01375 77-233 limits assumed) above
TNF-alpha (U937 cytotoxicity assay of Example 16), sequence (P01375 77-233 limits assumed): as above

B1: anti-TNF-alpha VHH69 (SEQ ID NO:46) sdAb (VHH)
VHH: EVQLVESGGGSVLAGGSLRLSCVASGFTSRYNYMAWFRQAPGKEREGVATIGTASGSADYYGSVKDRFTISQDNAKNTVYLQMNSLKPEDTAMYYCAARTYGTISLTPSDYRYWGQGTLVTVSS
Question: How did the “IC50 (inhibition of TNF-alpha cytotoxicity against U937 cells, ATP luminescence)” value [1] turn out when B1 was run?
Answer: > 208 µg/mL

B2: anti-TNF-alpha VHH69 (SEQ ID NO:46) sdAb (VHH)
VHH: EVQLVESGGGSVLAGGSLRLSCVASGFTSRYNYMAWFRQAPGKEREGVATIGTASGSADYYGSVKDRFTISQDNAKNTVYLQMNSLKPEDTAMYYCAARTYGTISLTPSDYRYWGQGTLVTVSS
Question: For B2, which OD450 [2] is on record?
Answer: 1.95 OD450

Question: And the “Signal/Noise Ratio” value [3]?
Answer: 8

Question: And the “Signal/Noise Ratio” value [4]?
Answer: 7.5

Question: And the “Signal/Noise Ratio” value [5]?
Answer: 3.2

Question: What about the “Signal/Noise Ratio” value [6] of the same binder?
Answer: 2.4

Question: And the “Signal/Noise Ratio” value [7]?
Answer: 5.9

Question: And the “Signal/Noise Ratio” value [8]?
Answer: 3.7

Question: And the “Signal/Noise Ratio” value [9]?
Answer: 1.6

Question: And the “Signal/Noise Ratio” value [10]?
Answer: 1.6

Question: What about the “Signal/Noise Ratio” value [11] of the same binder?
Answer: 2.1

Question: What about the “Signal/Noise Ratio” value [12] of the same binder?
Answer: 1.9

Question: And the “Signal/Noise Ratio” value [13]?
Answer: 1.5

Question: What about the “Signal/Noise Ratio” value [14] of the same binder?
Answer: 1.3

B3: anti-TNF-alpha VHH62 (SEQ ID NO:47) sdAb (VHH)
VHH: QVQLVESGGGPVQAGETLRLSCTASGFTFAEADMGWYRQAPGHECELVSTITTEGITSEASSYYADSVRGRFTISRDNAKNMVYLQMNSLKPEDTAVYYCAPDPYAYSTYSDYCSWAQGTQGTLVTVSS
Question: For B3, which “IC50 (inhibition of TNF-alpha cytotoxicity against U937 cells, ATP luminescence)” value [1] is on record?
Answer: ~714 µg/mL

B4: anti-TNF-alpha VHH62 (SEQ ID NO:47) sdAb (VHH)
VHH: QVQLVESGGGPVQAGETLRLSCTASGFTFAEADMGWYRQAPGHECELVSTITTEGITSEASSYYADSVRGRFTISRDNAKNMVYLQMNSLKPEDTAVYYCAPDPYAYSTYSDYCSWAQGTQGTLVTVSS
Question: How did the OD450 [2] turn out when B4 was run?
Answer: 0.005 OD450

Question: And the “Signal/Noise Ratio” value [3]?
Answer: 2

Question: And the “Signal/Noise Ratio” value [4]?
Answer: 1.9

Question: What about the “Signal/Noise Ratio” value [5] of the same binder?
Answer: 1.5

Question: And the “Signal/Noise Ratio” value [6]?
Answer: 1.4

Question: What about the “Signal/Noise Ratio” value [7] of the same binder?
Answer: 1.7

Question: And the “Signal/Noise Ratio” value [8]?
Answer: 1.5

Question: What about the “Signal/Noise Ratio” value [9] of the same binder?
Answer: 1.1

Question: And the “Signal/Noise Ratio” value [10]?
Answer: 1.1

Question: And the “Signal/Noise Ratio” value [11]?
Answer: 1.4

Question: What about the “Signal/Noise Ratio” value [12] of the same binder?
Answer: 1.3

Question: And the “Signal/Noise Ratio” value [13]?
Answer: 1.1

Question: What about the “Signal/Noise Ratio” value [14] of the same binder?
Answer: 0.9

B5: anti-TNF-alpha VHH66 (SEQ ID NO:45) sdAb (VHH)
VHH: HVQLVESGGGSVEAGGSLRLSCAASGFRYAAYCMGWFRQADGKEREGVATIDIDGLTTHADSVKGRFTISRDNAKNTLSLQMNDLKPEDTAMYYCAADRDRCGSIWTYAYKYRGQGTLVTVSS
Question: Which “EC50 (inhibition of TNF-α cytotoxicity on L929 cells, Assay 1, Batch A)” value [15] does the source give for B5 here?
Answer: 2.9 µg/mL

Question: And the “EC50 (inhibition of TNF-α cytotoxicity on L929 cells, Assay 1, Batch B)” value [15]?
Answer: 1.2 µg/mL

Question: What about the “EC50 (inhibition of TNF-α cytotoxicity on L929 cells, Assay 1, Batch C)” value [15] of the same binder?
Answer: 2.3 µg/mL

Question: What about the “EC50 (inhibition of TNF-α cytotoxicity on L929 cells, Assay 2, Batch B)” value [15] of the same binder?
Answer: 4.5 µg/mL

Question: What about the “EC50 (inhibition of TNF-α cytotoxicity on L929 cells, Assay 2, Batch C)” value [15] of the same binder?
Answer: 6.2 µg/mL

B6: anti-TNF-alpha VHH66 (SEQ ID NO:45) sdAb (VHH)
VHH: HVQLVESGGGSVEAGGSLRLSCAASGFRYAAYCMGWFRQADGKEREGVATIDIDGLTTHADSVKGRFTISRDNAKNTLSLQMNDLKPEDTAMYYCAADRDRCGSIWTYAYKYRGQGTLVTVSS
Question: With B6 as the binder, how does the OD450 [2] read?
Answer: 3.86 OD450

B7: STAT5-31 (SEQ ID NO:83) sdAb (VHH)
VHH: EVQLVESGGGSVQTGGSLRLSCAASGFPFSSHVMGWFRQAPGKKREGVAAISVDSGSTWYADSVKGRFTISLDSAKNTLYLQMNSLKPEDTAMYYCATRRGVILTLSPETYDYWGQGTQVTVSS
Question: What does the source list for B7?
Answer: Mean OD450 (STAT 1 protein [16]): 0.056 OD450; Mean OD450 (STAT 2 protein [17]): 0.015 OD450; Mean OD450 (STAT 5a protein [18]): 0 OD450; Mean OD450 (STAT 1 protein [19]): 0.122 OD450; Mean OD450 (STAT 2 protein [20]): 0.076 OD450; Mean OD450 (STAT 5a protein [21]): 0.158 OD450; Mean OD450 (STAT 1 protein [22]): 0.015 OD450; Mean OD450 (STAT 2 protein [23]): 0 OD450; Mean OD450 (STAT 5a protein [24]): 0 OD450; Mean OD450 (STAT 1 protein [25]): 0.024 OD450; Mean OD450 (STAT 2 protein [26]): 0.007 OD450; Mean OD450 (STAT 5a protein [27]): 0.017 OD450

Source: patent US20170327598A1 (published 2017)
